Measured values taken from PMC8748450.

Molecular target: apo-LgnD-C1-T1-C2 tridomain (truncated LgnD)
Assay: ITC; LgnA (125 µM) titrated into LgnD or truncated LgnD (25 µM), also into LgnB (concentrations for LgnB not told); thirteen 3 µL injections, 25 °C; one set binding model; MicroCal PEAQ-ITC

**Q.** For “LgnA, type II thioesterase (TEII) orthologue (enzyme)”, which Kd is on record?
**A.** 1700 nM
